Results reported in the DeepSol protein solubility set.

Experiment: soluble on expression in E. coli; label from the status in PepcDB or PDB records

Soluble on expression in E. coli, not soluble:
MGSDKIHHHHHHMDLRGRLIPDYRIDTPVDAPLEYRPAVTWRCERCGKLPTRGPCTCGKRCYYCRHCLIFGKLRTCDRLVTDPRPLDPVRPDHHTELNLTSDQQRIAEAIVRTIDQRKRLLVHAVCGAGKTPMLFPGIERALSTNRRVLITAPRADVVRELTGHLRRAFQQATIVSLFGGSEDRLGIGDITISTTHQLIHYRACFDVVFIDEVDAFPYRTDRTLHRYVRQATAPGASLILLSATPSLRDRRLPTVRLMRRYHGFPLPTPRLQVPYGKHDVVDWVLTHAGKPRLLFVPQVEALETWQTCLQQQGITCETVHAADPDRITKVARFRQTTGVLLTTTILERGVTLINVQVAVLDADHSFSSAALIQISGRVGRSADFPEGDVVLFANDRSDAMYEAIDHIKRANREGFR
MGSDKIHHHHHHMDLRQLPALNAIRAFEAAARHENFSRAADELFVTHGAVSHQVRALEEELGVQLFARNGKRLCLTGAGMRYAQQVRTALMMLADATREVRASDRDRRLVVSMLSSFAARFVTPRIGTFIERHPEIDVELQSTNNLTDFARDDVDLAIRFGFGNYPGLHVEPLFDEVFFPACAPTLNGGKLPQTPADLVHYNLLRSDDELWRPWFDAAGLDTLTEPKRGILYQDSSNLLLAAIEGQGIALVRRSLAVHDLLDGRLVRLFDIDGASPWHYFFVCPPPLLNAPRVQAFRAWMFEEVAQFKLLCDELDARRAAGKTPAECAQEGGWKGLRAQP
MGSDKIHHHHHHMDNKKPKIITIASIKGGVGKSTSAIIMATLLAKEHKVLLIDMDTQASTTSYFYKEILNQNIDIVKINVYRVLKEKIDINDSIVKIKENLDLIPSYLTLNKFLSESIPLKELRLQNNLEFLKRRYHYVIIDTNPSLDYTLSNALMTSNCIIVPMTAEKWAVESLELLEFHMNNLKIKIPIFLVITRFKKNNTHKQLLQHVESKTGFLGFIHEREDLNKKIAKNEEFDMTKDYINEYKGVLSRFLIVYDEYVK
MGSDKIHHHHHHMDSFHSFNQHAFNRHAKTYHLFAHIQQQIAICLVQFLKQKHYAKVLDLGSGSGAVFNALERQNILIEEFIALDNSINMLKLHPTHSINIQKISLEHADFEEHVFCTYDLVVSSSSLQWARDLKSVLEKIALSSKEVALAIHTDFSLHEVHEFLGTPSPLRDLKTLKSLIKNAFKHFQIELENKRFALYFNRKQDCLNYLKKCGLLGGSTLSFKQKKHFFQNMAFEKLSYEVLLFSGIKRS
MGSDKIHHHHHHMDTNKLIPLLSDMAIFVTVIEQGNFSKAAKKLGVTPSAVSRQISRLEDALGIKLLQRTTRQLALTESGKLTFDYCKQMVESADQAVNASRSATSTVSGLLRVSAPKSLANKVLRPLFVEFLKCYPDIQLHLKVTDRILDPIHDGVDFLIHINDYPIEALVNIKIGRVEQVLCASPEFLQSHTPPTHPDDLKYLSCICLGENMVDNRWRFINENQQTTVQVAGSYLLNHSDMRRDAIEQGFGIGPLPDYIAQQGIKTGKLIPLLEGWQLTGSYQGDICLQYVQSKYLPNKNRVFIDFMKQKLLIIQPDS
MGSDKIHHHHHHMDTPINAPLRKLPIGIQSFEKLRSENFLYVDKTALIYRLAQAGNPCFLSRPRRFGKSLLLSSFEAYFQGKKELFRGLAIEKLEKEWLQYPVLHLSLNAEKYDSREGLIDILERQLRQWEELYRTGGEGITHSGRFMTVIRRACEQTGRRVVVLIDEYDKPLLRSFDSQELQHDFRETLTAFYTVLKDADPWLQFVFITGVTKFAQMGIFSNLNQLNDISFDLDYNTLCGMTRAEIEATFSPELEALAVKSNATCRQVMDRLTRQYDGYRFTKDEEFTSMYNPFSVLSALQKRSYGNYWFASGTPTFLVEMLQKTDFDLREMEGIEVNEASLSDDRADINNPIPMIYQSGYLTIKDYDERFRMYTLGFPNEEVKYGFLNFVSPFYTPIAQTDTSFYIGKFIRELESGDVDAFLTRLRCFFAGIPYDLNDRTERHYQTVFYLVFQLMGQFTETEVRSARGRADAVVKTPDYIYVFEFKLNDSAEAALRQIDEKGYLLPYQADGRKVVKVGVAFEKEERNIGEWMIGG
MGSDKIHHHHHHMDVFSANQSAQGIVEEAQQANALDHPAAFEIPRSAVIDIKDSISGRTYPLFIKLPKSYRSQPNKRYPVIYLTDSWYSFQIVSGATRFPMNFNKMDEAIIVAISYSEGSRGSSSRNRDYTPSVNPAWKDITGGAAAHRDFIETTVFDYVERHYRAEAGSRIFVGNSFGGLFGTYVLMSKPEMFDSYILGSPSYWWDKGYIFELEKQFRKSAKPVSAKVFIGIGELEKKVNGVGEDMVKEAQAFYDLMQQWSSRPQTKLLIIPEADHQTAFPTTAIHGLQWILGKCPPKGNCLQGNLN
MGSDKIHHHHHHMDYLDIGQAADNKYYSSKRTLPLAIMKENAKEYQPLKINTIKTCSCKENNLNCLTAKEWIKRQIGVWEFYYEKRDIRDKTVHPATFPISLAKQVIELFSHEGELVVDPFVGSGTTLVAARDSNRNAVGFDLQEKYIKLCAERLSTQRIVGNAQQVAIEEDARNISNYFNEESISLIFTSPPYANLLNRERKNKSRRNRKNNQLGKVEQYSQDPRDLGTLDVESYTKEMGDIFEKVKPALRTKGHCVINVPDMWWENKRIAIHVYLINEMTKRGYELRNIIIWDKRNLVNQIGIFGWPSNYITMGVTFEYLLDFWKP
MGSDKIHHHHHHMEANSIDVNSILANKNLIIKFQPVVSVIKKSVIGLEAVCLGSSDDNGGIISTSKLFKTAEEQGVLIELDRLYREKAVKEFVKVYKRNKELLLFLDINISIIDKYVGSGIIMNLISDSGISTNNVVLQIIEGKMTNLEALKKFIYLYRSNGFLVALKDLGTGFANMDKISYVEPDIIKINSVLTKGIEVDYYRQEVFRSLVNLSKKIGALVVCEDIASEQETMMIMELGADMLEGSYFENDFDLGEKFLDASRKLIDATAVKYEKYTEEEVKAKEMIYSGYDFVINEALKELSSLTEDKFDDSINTVINKNSKLECVYVLNKEGIQVGSTATRFTDMVPQRALIFEPAQKGTNHSLKKYYYFLKTMSLNKYVTEPYISLATGNLCITISAVFKNLEGKEYILCVDFNPNYMSM
MGSDKIHHHHHHMEDIVEALKLAVTNLPEDVALALKNAYEREDYEIAKYNLEIMLRAVKTSKYYYVPLCQDTGTPIFFVETDGTWNVKEIYETIAEAVKRATDEIPLRPNAICLLSGKVVGNVPEIHIEPGKRNRISILIKGGGSENCSALFPLTPGDWFEGVKKKIIDHIRSCGGKPCPPIIVGIGIASPAERAITLAKKSLFRKIGERHEKLGWLEEEILEEINFLDIGPMGLGGKTTALDVKIEVGERHPASFIVGIAIQCWAHRRAFIEEKEDGEVVIWQ
MGSDKIHHHHHHMEDKQKVIFIEDDPNLGLIIVLALQSKGYEVCYANTLSGIQDMIEKDCPNILLLDLEVGNQNALDYLPFIRSKHPSLPVLIASSHNEGEEITRCYEAGANHYTKKPYDIQEIDFLIQRFCKKGSPISNSISIGDYQLELSTHKLFYKQEQSKTLSPKDFKLFYLLSEQLNQPVSREKLFHEIWDGQEVHDSLNNSISRLRKLLEKDTTLSIDAVKGVGYILSKKDQLSSS
MGSDKIHHHHHHMEDREQLYTLLAQKDWDAIGKIIYKNKKAKKQDPFLTQVTTFFEAEFFEFTRPLPPAERAKQFEHTNLIIELGQHGFSQAFVDNFVDERLKLMQETQHSALLNYAQTYQHRPLAQRIIASFINTKPEAVAASLRENMTIRATDVQPGKAKTIRLFKSKQEEHFYEAVRRVFPTYHPYPNVALSCVLDYQAIKDSLSEQAKSYFFKAIIDSVVFDVGSGYEPKYFIELDSNFHDAAQAQANDKMKDDIFRAANTKLIRIRPLNSKASSIEEFEKLVREVMRQL
MGSDKIHHHHHHMEFLIYSLPEEVLREEMLGNFSVALKLIDDFLKKDLPLLQRERLIYEKERIERLLEDYPFTEKEAMEKMREMFEGFSEGEFQYLMNEGVLDYIVVEGEKRFERRFFHNLAFVRSEYRERLRKDERSEKARRILHERLERLIKGEDPKRYRIRARITLKLKETSSKHRVWLPFPKESLQIESVKLLRTSHKSYYISPNDVPQRTIYFEGEDSTFFVEFEYIVREWVNHVDPERVSEKVAGFEEFLKEEPPHIVFTPKLRWLTQTVVGSEVNPYLKAKRIYDWITLNVRYSYVKPYALYENITDFVVNNLKGDCGFQALLFITMCRIAGVPARWQSGWYINPIFGSPHDWALFYVEPYGWLPADLSFGGARRDNESFRSFYFGNLDGFRMVANDGFMKDFDPKTRFVRSDPTDNQVGEAESEEKRLPFESTIEVISFEEV
MGSDKIHHHHHHMEGKKTTQEEYQKCVNAVVDYINLHLGEEIDLKSLARISHFSPFYFHRIMKAFLGEPIGTFIVRTRTEAAARLLRYSSTSISDIAYRIGYASPSSFSKIFKQMYGISPTEYRNNKNYVIMKPAIIKPDLELKKEIRELPQRNVIYIRLFGDYKLNDYAGTWMHLIQFVKEQNLPMGDPSPLCIYHDDPKVTPTDKLRTDVCMLLPSNARPKGNVGFKQLPAGRYATFLYKGSYDQLQAVYDTIYGKYLPEMECTLSDEPSAERYLNDPSCTPPEELLTEIYIPIR
MGSDKIHHHHHHMEIFEDVVRCGGFRAAALGRGVSSSAISQSISVLEEALGIRLLNRTTRSVAPTEAGEQLLERLRPALYEIRTAVDDLNQLRERPSGTVRINAPGPAADHVLCPLTFEFMKIYPDVNVEIVSDAAIIDIVEQGFDAGVRFGNQLAQDMIAMPLGPALRYAIVASPDYLRKRGRPHSPRDLLQHDCIRRRFPGGTMVTWKFARDGDEVEITPKGRLTLSSAHQELQAALAGSGIAHLFEDYVRDDVEQGRLVELLCDWKQKLPSWYLYYPSRRHTSAAMRAFLEYIRNQRQHPDRR
MGSDKIHHHHHHMEINVGAVISANRKQKGITQQALADFVGVSKASVSKWETGQSYPDITLLPILAAYFDVSIDKLMAYDAQLSSTEIRRIYTSMKQAFETQPGDAVLKSIRNLIRRYYACYPFLLQMGLLILNHYDLLPGTSQTAKVTEYVNEARLLFVRVRQNSQKAQLTAKAVELEGYSLLLLQRPDDVLALLGEYVPEQLPADSLIAGAFQQKGDFRRAIATSQSGLMQDLSIIMSQLTNYMTLLKDDPNRLAATYQRGQAIAKAFDLATLNPAVWLNFQLAALNGFAQQDKTDEAVALLQEFTHVLTATKMPLTLHGDAYFDAIEPWLEQLDLGSQSPRVSGQAKQVLADFVLQNPALAKIRTLPVVQPLLAELKQVSGHR
MGSDKIHHHHHHMELKSAEEKSLYYRNKIKEVIDEVGKVVVGQKYMINRLLIGICTGGHILLEGVPGLAKTLSVNTLAKTMDLDFHRIQFTPDLLPSDLIGTMIYNQHKGNFEVKKGPVFSNFILADEVNRSPAKVQSALLECMQEKQVTIGDTTYPLDNPFLVLATQNPVEQEGTYPLPEAQVDRFMMKIHLTYLDKESELEVMRRVSNMNFNYQVQKIVSKNDVLEIRNEINKVTISESLEKYIIELVFATRFPAEYGLEAEASYILYGASTRAAINLNRVAKAMAFFNNRDYVLPEDIKEVAYDILNHRIILNYEAEAEGISTRQIIETILRKVNITKA
MGSDKIHHHHHHMELLECVEHVIKTRRSHRLYLDKPVEREKLEKMIELAMWAPSAMNRQQWFFVVVAGKRLKEMIGIVEKGYEHILPRLQRFFAETPKVIEQTRRFFKSLGNAPAAVFAYYTPTGDDYSDVQSVSAAIQNMLLAAHAMGLGTCWMTGPVHVEEEINKALGVEGKKLVAVITVGYPAKQPPVPPRRDSEKKVVWMLD
